Laboratory results taken from US20210062131A1, “In Vitro, Multi-Niche, Bone Marrow-on-a-Chip” (Georgia Tech Research Corporation, priority 2018, published 2021).

System: CXCL12
Assay: CXCL12 expression by immunohistochemistry in BMOC device after adding mobilizing agents
Assay type: cell-based, human
Details: BMOC with OBs, HUVECs and MSCs; G-CSF and AMD3100 added on day 5, cells fixed and stained on day 6; IHC
Protocol: Cells were fixed and stained on day 6. CXCL12 expression was measured by immunohistochemistry (IHC); n=2-3 devices (× 5 ROI each), mean±SD.
Staining procedure for devices was adapted from previously reported approaches. Devices were washed with PBS, fixed with 4% formaldehyde (ThermoFisher), and permeabilized with 0.1% Triton X-100. Prior to staining, cells were blocked with 5% BSA, 3% goat serum in PBS. Primary antibodies were diluted (1:100) in blocking buffer and devices were stained overnight at 4° C. Devices were then washed with 0.1% BSA in PBS and stained with secondary antibodies (1:200) diluted in wash buffer for 3 hours at RT. Devices were washed with wash buffer and then stained with DAPI (1:1000) and Phalloidin AF647 (1:40).

B1: G-CSF: mobilizing agent added to the BMOC device (protein, UniProt P09919 31-207, looked up)
Granulocyte …: TPLGPASSLPQSFLLKCLEQVRKIQGDGAALQEKLVSECATYKLCHPEELVLLGHSLGIPWAPLSSCPSQALQLAGCLSQLHSGLFLYQGLLQALEGISPELGPTLDTLQLDVADFATTIWQQMEELGMAPALQPTQGAMPAFASAFQRRAGGVLVASHLQSFLEVSYRVLRHLAQP
  expression of cytokine CXCL12: decrease expression of cytokine CXCL12
